Literature values in patent US11845786B2, “Peptides inhibiting KLK1, KLK4, or KLK4 and KLK8” (Daiichi Sankyo Company, Limited, priority 2017, dated 2023).
Blank lines part the entries; values can stand above or below the molecule they belong to.

Assays:
KLK12 = target: T1, KLK12 (Homo sapiens, UniProt Q9UKR0); conditions: Non Patent Literature 5
T1 sequence (Q9UKR0 18-248): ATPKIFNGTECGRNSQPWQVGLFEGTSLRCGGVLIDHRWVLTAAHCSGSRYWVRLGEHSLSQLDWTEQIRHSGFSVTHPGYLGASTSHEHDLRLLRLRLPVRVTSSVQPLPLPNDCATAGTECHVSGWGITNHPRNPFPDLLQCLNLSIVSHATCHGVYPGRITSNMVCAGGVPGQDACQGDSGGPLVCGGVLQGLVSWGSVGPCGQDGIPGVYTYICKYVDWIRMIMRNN

KLK13 = target: T2, KLK13 (Homo sapiens, UniProt Q9UKR3); conditions: Non Patent Literature 5
T2 sequence (Q9UKR3 17-277): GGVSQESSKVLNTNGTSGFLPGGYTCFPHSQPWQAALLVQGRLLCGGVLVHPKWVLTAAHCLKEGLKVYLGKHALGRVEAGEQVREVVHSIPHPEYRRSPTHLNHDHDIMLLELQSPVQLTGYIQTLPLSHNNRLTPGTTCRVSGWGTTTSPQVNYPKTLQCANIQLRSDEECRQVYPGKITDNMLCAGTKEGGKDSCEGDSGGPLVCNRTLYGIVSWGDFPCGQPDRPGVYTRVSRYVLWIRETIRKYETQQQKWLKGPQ

KLK4 = KLK4 (Homo sapiens, UniProt Q9Y5K2); conditions: Non Patent Literature 5
Chain of KLK4 (Q9Y5K2 31-254): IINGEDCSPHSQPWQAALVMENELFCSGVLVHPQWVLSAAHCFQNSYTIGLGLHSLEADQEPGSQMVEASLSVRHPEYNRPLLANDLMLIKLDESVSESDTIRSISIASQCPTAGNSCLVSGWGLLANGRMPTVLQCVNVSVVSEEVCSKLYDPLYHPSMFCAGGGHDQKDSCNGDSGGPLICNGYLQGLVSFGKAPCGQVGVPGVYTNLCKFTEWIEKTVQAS

KLK8 = target: T3, KLK8 (Homo sapiens, UniProt O60259); conditions: Non Patent Literature 7
T3 sequence (O60259 33-260): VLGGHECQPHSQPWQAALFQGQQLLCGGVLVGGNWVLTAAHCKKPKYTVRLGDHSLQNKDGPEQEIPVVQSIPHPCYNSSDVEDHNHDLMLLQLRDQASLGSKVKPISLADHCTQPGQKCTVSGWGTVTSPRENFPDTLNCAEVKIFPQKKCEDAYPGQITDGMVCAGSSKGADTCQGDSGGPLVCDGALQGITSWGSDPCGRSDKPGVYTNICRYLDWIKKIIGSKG

Ki (KLK12): 1 nM
Ki (KLK13): 1 nM
Ki (KLK4): 27 nM
Molecule: SPINK6: human serine protease of Kazal-type 6, natural KLK4 inhibitor of low specificity (QGGQVDCGEFQDPKVYCTRESNPHCGSDGQTYGNKCAFCKAIVKSGGKISLKHPGKC; UniProt Q6UWN8 24-80, looked up)

KLK8 inhibitory activity (KLK8): very weak
B1: SPINK9: human serine protease of Kazal-type 9, reported to have KLK8 inhibitory activity (protein, UniProt Q5DT21 20-86, looked up)
Serine protease inhibitor …: IECAKQTKQMVDCSHYKKLPPGQQRFCHHMYDPICGSDGKTYKNDCFFCSKVKKTDGTLKFVHFGKC
